Source: US20120324602A1
Values belong to the binder of their own block, whether it stands above or below them.

Key:
Assay in all cases: TAP-MS, C-terminal GS tag
[1] = target: T1, phytochrome A supressor spa1 (SPA1) (Arabidopsis thaliana)
T1 sequence (Q9SYX2 1-1029, looked up): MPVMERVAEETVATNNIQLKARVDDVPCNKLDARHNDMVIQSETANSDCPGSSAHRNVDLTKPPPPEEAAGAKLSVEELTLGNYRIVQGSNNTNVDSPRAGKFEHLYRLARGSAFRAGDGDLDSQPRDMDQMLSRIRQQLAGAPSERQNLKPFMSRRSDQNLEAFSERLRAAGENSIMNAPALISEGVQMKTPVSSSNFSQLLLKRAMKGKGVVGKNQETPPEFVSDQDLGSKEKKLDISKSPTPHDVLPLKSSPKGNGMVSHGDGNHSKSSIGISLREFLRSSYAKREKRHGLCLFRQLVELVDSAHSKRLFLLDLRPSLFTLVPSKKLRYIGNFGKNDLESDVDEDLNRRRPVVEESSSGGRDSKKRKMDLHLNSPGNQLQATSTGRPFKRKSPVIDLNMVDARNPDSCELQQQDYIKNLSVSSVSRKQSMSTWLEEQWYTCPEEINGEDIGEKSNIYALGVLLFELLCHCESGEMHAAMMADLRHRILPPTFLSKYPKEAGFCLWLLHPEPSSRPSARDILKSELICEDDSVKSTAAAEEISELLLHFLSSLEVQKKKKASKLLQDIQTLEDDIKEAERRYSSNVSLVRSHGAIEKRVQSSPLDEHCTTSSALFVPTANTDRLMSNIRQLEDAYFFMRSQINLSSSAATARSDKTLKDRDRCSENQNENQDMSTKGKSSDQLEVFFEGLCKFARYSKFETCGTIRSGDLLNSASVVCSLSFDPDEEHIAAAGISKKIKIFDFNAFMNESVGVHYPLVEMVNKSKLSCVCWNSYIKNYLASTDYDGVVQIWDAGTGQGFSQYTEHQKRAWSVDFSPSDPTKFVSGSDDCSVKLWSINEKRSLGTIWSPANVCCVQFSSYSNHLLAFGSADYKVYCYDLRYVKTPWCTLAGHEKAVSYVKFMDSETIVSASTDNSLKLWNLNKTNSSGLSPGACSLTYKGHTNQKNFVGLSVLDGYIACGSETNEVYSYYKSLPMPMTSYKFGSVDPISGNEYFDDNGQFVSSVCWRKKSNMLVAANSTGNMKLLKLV

[2] = target: G2484-1, agenet domain-containing protein (Arabidopsis thaliana)
[3] = target: T2, actin-related protein 7 (ARP7) (Arabidopsis thaliana)
T2 sequence (Q8L4Y5 1-363, looked up): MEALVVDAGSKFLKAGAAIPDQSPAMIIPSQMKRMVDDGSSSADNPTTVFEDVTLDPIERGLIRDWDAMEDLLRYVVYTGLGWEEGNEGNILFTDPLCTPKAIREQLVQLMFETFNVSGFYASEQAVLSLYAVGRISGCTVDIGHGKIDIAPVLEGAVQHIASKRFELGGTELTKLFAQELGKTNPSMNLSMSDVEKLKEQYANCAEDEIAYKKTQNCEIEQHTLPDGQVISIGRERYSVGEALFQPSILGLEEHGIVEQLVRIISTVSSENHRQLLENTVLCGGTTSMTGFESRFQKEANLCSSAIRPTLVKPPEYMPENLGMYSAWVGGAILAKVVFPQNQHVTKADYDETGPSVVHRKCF

[4] = target: expressed protein, similar to At3g03460 (AT5G17510) (Arabidopsis thaliana)
[5] = target: expressed protein (AT5G13030) (Arabidopsis thaliana)
[6] = target: T3, actin-related protein 4 (ARP4) (Arabidopsis thaliana)
T3 sequence (Q84M92 1-441, looked up): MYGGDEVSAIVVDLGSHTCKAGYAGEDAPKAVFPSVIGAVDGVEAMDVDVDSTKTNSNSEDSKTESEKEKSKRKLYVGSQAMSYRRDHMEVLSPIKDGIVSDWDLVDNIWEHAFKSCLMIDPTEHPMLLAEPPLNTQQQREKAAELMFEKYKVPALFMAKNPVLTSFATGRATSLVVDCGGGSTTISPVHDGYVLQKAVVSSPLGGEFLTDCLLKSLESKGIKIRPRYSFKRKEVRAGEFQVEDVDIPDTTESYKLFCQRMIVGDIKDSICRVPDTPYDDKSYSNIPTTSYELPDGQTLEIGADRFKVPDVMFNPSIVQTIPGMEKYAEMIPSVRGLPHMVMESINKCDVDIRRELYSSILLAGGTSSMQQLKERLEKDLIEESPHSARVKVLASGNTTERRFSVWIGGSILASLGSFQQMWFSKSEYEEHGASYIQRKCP

[7] = target: T4, SWIRM domain-containing protein (SWI3C) (Arabidopsis thaliana)
T4 sequence (Q9XI07 1-807, looked up): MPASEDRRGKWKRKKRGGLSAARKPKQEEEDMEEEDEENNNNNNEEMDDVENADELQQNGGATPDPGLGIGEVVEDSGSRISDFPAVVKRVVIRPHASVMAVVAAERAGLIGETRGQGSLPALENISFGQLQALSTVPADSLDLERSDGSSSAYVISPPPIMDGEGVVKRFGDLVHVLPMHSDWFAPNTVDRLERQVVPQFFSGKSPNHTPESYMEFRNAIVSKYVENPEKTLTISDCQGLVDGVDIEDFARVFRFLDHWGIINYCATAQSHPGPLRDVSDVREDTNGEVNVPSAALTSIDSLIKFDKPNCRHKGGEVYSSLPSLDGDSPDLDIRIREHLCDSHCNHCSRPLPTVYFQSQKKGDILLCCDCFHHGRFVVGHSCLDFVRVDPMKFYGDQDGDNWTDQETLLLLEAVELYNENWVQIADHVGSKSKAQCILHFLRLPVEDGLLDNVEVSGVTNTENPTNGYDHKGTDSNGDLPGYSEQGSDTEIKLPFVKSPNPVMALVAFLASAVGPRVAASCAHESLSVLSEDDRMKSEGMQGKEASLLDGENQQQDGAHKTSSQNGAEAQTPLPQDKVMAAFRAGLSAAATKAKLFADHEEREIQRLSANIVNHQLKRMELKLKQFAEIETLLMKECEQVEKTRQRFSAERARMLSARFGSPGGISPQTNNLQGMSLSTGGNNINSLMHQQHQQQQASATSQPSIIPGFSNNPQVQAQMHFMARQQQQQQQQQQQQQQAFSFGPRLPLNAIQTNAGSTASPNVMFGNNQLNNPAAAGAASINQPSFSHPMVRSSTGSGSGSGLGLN

[8] = target: importin alpha-1 subunit (IMPA4) (Arabidopsis thaliana)
[9] = target: DNA-binding bromodomain-containing protein (AT1G20670) (Arabidopsis thaliana)
[10] = target: 26S proteasome regulatory subunit (RPN9) (Arabidopsis thaliana)
[11] = target: importin alpha-1 subunit (IMPA1) (Arabidopsis thaliana)
[12] = target: importin alpha-2 (IMPA2) (Arabidopsis thaliana)
[13] = target: splicing factor (AT3G55220) (Arabidopsis thaliana)
[14] = target: SWIB complex BAF60b domain-containing protein (Swp73B) (Arabidopsis thaliana)
[15] = target: expressed protein, similar to DAG protein (AT3G15000) (Arabidopsis thaliana)
[16] = target: importin beta-2 (Arabidopsis thaliana)
[17] = target: SNF2 protein (BRM) (Arabidopsis thaliana)
[18] = target: expressed protein, similar to At4g22320 (AT5G55210) (Arabidopsis thaliana)
[19] = target: chromatin remodeling protein (SYD) (Arabidopsis thaliana)
[20] = target: homeobox-leucine zipper protein (HB-2)/HD-ZIP protein (Arabidopsis thaliana)
[21] = target: RD21 (RESPONSIVE TO …ON 21) (Arabidopsis thaliana)
[22] = target: unknown protein, similar to At5g17510 (AT3G03460) (Arabidopsis thaliana)
[23] = target: DNA-binding bromodomain-containing protein, similar to At1g20670 (AT1G76380) (Arabidopsis thaliana)
[24] = target: T5, SE (SERRATE) (Arabidopsis thaliana)
T5 sequence (Q9ZVD0 1-720, looked up): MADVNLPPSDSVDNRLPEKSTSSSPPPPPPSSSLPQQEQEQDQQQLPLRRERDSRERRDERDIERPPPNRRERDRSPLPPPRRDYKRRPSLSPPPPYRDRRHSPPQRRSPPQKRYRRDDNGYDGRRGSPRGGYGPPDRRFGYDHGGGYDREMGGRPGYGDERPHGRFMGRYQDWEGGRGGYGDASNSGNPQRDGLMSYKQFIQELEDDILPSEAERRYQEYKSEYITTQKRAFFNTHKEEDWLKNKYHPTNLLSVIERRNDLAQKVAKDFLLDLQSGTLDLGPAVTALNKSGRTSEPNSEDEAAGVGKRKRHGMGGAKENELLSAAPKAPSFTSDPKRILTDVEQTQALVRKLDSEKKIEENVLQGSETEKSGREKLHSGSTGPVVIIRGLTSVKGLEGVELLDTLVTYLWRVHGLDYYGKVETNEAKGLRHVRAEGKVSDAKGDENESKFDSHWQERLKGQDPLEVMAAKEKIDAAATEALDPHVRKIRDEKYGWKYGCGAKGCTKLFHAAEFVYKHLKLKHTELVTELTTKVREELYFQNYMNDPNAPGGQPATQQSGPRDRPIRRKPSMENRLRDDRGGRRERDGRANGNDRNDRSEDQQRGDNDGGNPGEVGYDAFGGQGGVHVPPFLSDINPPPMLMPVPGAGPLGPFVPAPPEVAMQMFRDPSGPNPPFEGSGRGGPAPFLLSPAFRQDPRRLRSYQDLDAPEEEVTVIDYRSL

[25] = target: DNA-binding bromodomain-containing protein, similar to At1g20670 (AT5G55040) (Arabidopsis thaliana)
[26] = target: Swp73A (Arabidopsis thaliana)

- C-GS (times co-purified) [1]: 1
- C-GS (times co-purified) [2]: 4
- C-GS (times co-purified) [3]: 4
- C-GS (times co-purified) [4]: 3
- C-GS (times co-purified) [5]: 1
- C-GS (times co-purified) [6]: 4
- C-GS (times co-purified) [7]: 4
- C-GS (times co-purified) [8]: 1
- C-GS (times co-purified) [9]: 1
- C-GS (times co-purified) [10]: 1
- C-GS (times co-purified) [11]: 4
- C-GS (times co-purified) [12]: 4
- C-GS (times co-purified) [13]: 1
- C-GS (times co-purified) [14]: 4
- C-GS (times co-purified) [15]: 3
- C-GS (times co-purified) [16]: 4
- C-GS (times co-purified) [17]: 4
- C-GS (times co-purified) [18]: 4
- C-GS (times co-purified) [19]: 4
- C-GS (times co-purified) [20]: 1
B1: AN3-GS (protein, UniProt Q8L8A5 1-210, looked up)
GRF1-interacting factor 1: MQQHLMQMQPMMAGYYPSNVTSDHIQQYLDENKSLILKIVESQNSGKLSECAENQARLQRNLMYLAAIADSQPQPPSVHSQYGSAGGGMIQGEGGSHYLQQQQATQQQQMTQQSLMAARSSMLYAQQQQQQQPYATLQHQQLHHSQLGMSSSSGGGGSSGLHILQGEAGGFHDFGRGKPEMGSGGGGEGRGGSSGDGGETLYLKSSDDGN
modifications: C-terminal GS tag

- C-GS (times co-purified) [3]: 2
- C-GS (times co-purified) [4]: 2
- C-GS (times co-purified) [21]: 2
- C-GS (times co-purified) [22]: 1
- C-GS (times co-purified) [23]: 2
- C-GS (times co-purified) [7]: 2
- C-GS (times co-purified) [24]: 1
- C-GS (times co-purified) [25]: 1
- C-GS (times co-purified) [9]: 2
- C-GS (times co-purified) [26]: 2
- C-GS (times co-purified) [14]: 2
- C-GS (times co-purified) [17]: 2
- C-GS (times co-purified) [18]: 1
B2: ARP4-GS (protein, UniProt Q84M92 1-441, looked up)
Actin-related protein 4: T3 sequence (Q84M92 1-441, looked up)
modifications: C-terminal GS tag
